Measured values from US20210214435A1 (MorphoSys, published 2021).

T1: mouse GPVI (full-length) expressed on stably transfected CHO cells (mouse, UniProt P0C191 22-313)
T1 sequence: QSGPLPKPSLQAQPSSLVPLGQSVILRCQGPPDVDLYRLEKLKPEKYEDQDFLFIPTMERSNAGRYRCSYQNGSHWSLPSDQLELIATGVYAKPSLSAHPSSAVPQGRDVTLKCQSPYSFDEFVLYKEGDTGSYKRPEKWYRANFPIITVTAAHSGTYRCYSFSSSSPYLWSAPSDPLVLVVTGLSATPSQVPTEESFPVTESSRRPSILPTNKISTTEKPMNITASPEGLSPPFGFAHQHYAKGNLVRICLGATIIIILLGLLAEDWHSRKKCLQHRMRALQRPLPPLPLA

T2: mouse GPVI on the cell surface of mouse platelets (mouse, UniProt P0C191 22-313)
T2 construct: whole, on cells; also called GPVI on murine platelets
T2 sequence (looked up): T1 sequence

B1: Fab #2 comprising a modified heavy chain constant region (Fab, V domains shown)
VH: QVQLVESGGGLVKPGGSLRLSCAASGFSFSDHYMSWIRQAPGKGLEWVSSVGSEGKFIDYAASVKGRFTISRDNAKNSLYLQMNSLRAEDTAVYYCARHYREFRWHYYYFDYWGQGTLVTVSS
VL: QSVLTQPPSVSGAPGQRVTISCTGSSSNIGAGYDVHWYQQLPGTAPKLLIYGNSNRPSGVPDRFSGSKSGTSASLAITGLQAEDEADYYCQSHDLGAHVWVFGGGTKLTVLG
notes: Human Fab from the Ylanthia library; produced in HKB11 cells; also called Fab #2 mod; HC
B2: Fab #3 comprising a modified heavy chain constant region (Fab, V domains shown)
VH: QVQLVESGGGLVKPGGSLRLSCAASGFSFGDYYVSWIRQAPGKGLEWVSAIGGSGSAVQYAESVKGRFTISRDNAKNSLYLQMNSLRAEDTAVYYCARHYREFRWHYYYFDYWGQGTLVTVSS
VL: B1 VL
notes: Human Fab from the Ylanthia library; produced in HKB11 cells; also called Fab #3 mod; HC
B3: Fab #4 comprising a modified heavy chain constant region (Fab, V domains shown)
VH: QVQLVQSGAEVKKPGASVKVSCKASGGAFTSSYMHWVRQAPGQGLEWMGIIEPTGASTLYAQRFQGRVTMTRDTSTSTVYMELSSLRSEDTAVYYCARTGIALPLGFDLWGQGTLVTVSS
VL: QSVLTQPPSVSAAPGQKVTISCSGSSSNIGNNYVSWYQQLPGTAPKLLIYDNNKRPSGIPDRFSGSKSGTSATLGITGLQTEDEADYYCAAWSTRFRWVFGGGTKLTVLG
notes: Human Fab from the Ylanthia library; produced in HKB11 cells; also called Fab #4 mod; HC
B4: Reference Control Antibody RefFab #1 (humanized GPVI antibody of WO2011073954A2, SANOFI) (Fab, V domains shown)
VH: EVQLLESGPGLVAPSGSLSITCTVSGFSLTGYGVNWVRQPPGKGLEWLGMIWGDGSTDYQSTLKSRLSISKDNSKSQVFLKMNSLRTDDTARYYCARDLPMDYWGLGTSVTVSS
VL: DIQMTQSPSSLSASVGGRVTITCKASQDINKYIAWYQHKPGKGPSLLIHYTSTLQPGVPSRFSGSGSGRDYSFSISNLQPEDIATYYCLQYANLLTFGGGTKLEIKR
notes: Cloned into mammalian Fab expression vectors; a glycine-serine linker (G4S)2 was added to the C-terminus of the Fab heavy chain
B5: Fab #1 comprising a modified heavy chain constant region (Fab, V domains shown)
VH: QVQLVQSGAEVKKPGASVKVSCKASGYTFTSHYMHWVRQAPGQGLEWMGLIEPSEGETEYAQRFQGRVTMTRDTSTSTVYMELSSLRSEDTAVYYCARDSSRSYPLGFDIWGQGTLVTVSS
VL: QSVLTQPPSVSAAPGQKVTISCSGSSSNIGNNYVSWYQQLPGTAPKLLIYDNNKRPSGIPDRFSGSKSGTSATLGITGLQTEDEADYYCAAWDFRSSRWVFGGGTKLTVLG
notes: Human Fab from the Ylanthia library; produced in HKB11 cells; also called Fab #1 mod; HC

Tests used:
[1] = target: T3, mouse GPVI extracellular domain fused at its C-terminus to human IgG1 Fc (GPVI-Fc) (mouse; human); assay: Competition ELISA (MSD): mouse GPVI-Fc preincubated with Fab, then on coated VitroCol (competitor)
T3 construct: also called mGPVI; mouse GPVI-Fc
Experimental: (§1) 1 or 10 μg/ml of recombinant GPVI collagen substrate (crosslinked collagen-related peptide (CRP-XL (Anaspec, Inc.), rat-tail collagen (Enzo Life Sciences) or VitroCol (Advanced BioMatrix, Inc.) was coated on a MSD-plate over night at 4° C., washed with PBST, blocked for 1 h at RT with PBS supplemented with 0.05% Tween-20 and 3% skim milk powder, and subsequently washed again with PBST. Purified recombinant GPVI antigens (human, cynomolgus monkey or mouse GPVI as prepared in Example 1) diluted in PBS and varying concentrations of Fab (comprising a modified heavy chain constant region) diluted in PBS (final concentration range 200-0.3 μg/ml) were incubated in a polypropylene plate for 30 min at RT. Fab/GPVI-Fc mixture was added to coated collagen substrate for 1 h at RT. After washing with PBST, bound GPVI form different species was detected using an ECL-conjugated detection antibody directed against human Fc (Jackson Immuno Research) for 1 h at RT. MSD read buffer (Meso Scale Discovery) was added prior to readout in a Sector Imager6000 (Meso Scale Discovery).
Target sequence in this assay (chain, as listed by the source limits assumed): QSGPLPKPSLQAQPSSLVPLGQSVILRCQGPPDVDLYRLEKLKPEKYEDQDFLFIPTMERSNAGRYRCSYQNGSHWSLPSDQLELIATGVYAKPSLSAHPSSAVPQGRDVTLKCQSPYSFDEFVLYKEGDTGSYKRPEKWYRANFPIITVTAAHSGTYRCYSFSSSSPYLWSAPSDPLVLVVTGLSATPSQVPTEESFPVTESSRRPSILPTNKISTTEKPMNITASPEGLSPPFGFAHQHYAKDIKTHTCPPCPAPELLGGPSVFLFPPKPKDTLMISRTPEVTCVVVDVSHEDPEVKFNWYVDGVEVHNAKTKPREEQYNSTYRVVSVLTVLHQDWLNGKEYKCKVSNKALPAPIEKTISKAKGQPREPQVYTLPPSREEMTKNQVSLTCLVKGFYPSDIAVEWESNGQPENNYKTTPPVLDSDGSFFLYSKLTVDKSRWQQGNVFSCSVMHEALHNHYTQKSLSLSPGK

[2] = target: T3, mouse GPVI extracellular domain fused …; assay: Competition ELISA (MSD): mouse GPVI-Fc preincubated with Fab, then on coated CRP-XL (competitor)
Experimental: as §1

[3] = target: T4, cynomolgus monkey GPVI extracellular domain fused at its C-terminus to human IgG1 Fc (GPVI-Fc) (cynomolgus monkey; human); assay: Solution equilibrium titration (SET), Fab with GPVI-Fc
T4 construct: also called cyGPVI-2; cyGPVI
T4 sequence (chain, as listed by the source limits assumed): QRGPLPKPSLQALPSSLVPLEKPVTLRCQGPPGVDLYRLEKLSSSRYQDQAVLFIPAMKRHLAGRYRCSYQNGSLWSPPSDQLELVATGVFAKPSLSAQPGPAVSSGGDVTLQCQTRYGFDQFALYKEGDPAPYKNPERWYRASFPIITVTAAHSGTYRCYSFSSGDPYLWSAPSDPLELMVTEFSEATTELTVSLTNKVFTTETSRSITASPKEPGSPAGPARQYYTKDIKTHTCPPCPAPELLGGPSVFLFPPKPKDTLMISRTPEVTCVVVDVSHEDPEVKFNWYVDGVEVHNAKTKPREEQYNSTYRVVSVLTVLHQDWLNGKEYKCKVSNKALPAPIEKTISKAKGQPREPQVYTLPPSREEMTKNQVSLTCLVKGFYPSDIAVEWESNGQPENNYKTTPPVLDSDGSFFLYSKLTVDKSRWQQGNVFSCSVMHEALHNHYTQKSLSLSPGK
Experimental: (§2) Affinity determination in solution was basically performed as described in the literature (Friguet et al. 1985). In order to improve the sensitivity and accuracy of the SET method, it was transferred from classical ELISA to ECL-based technology (Haenel et al. 2005).
(§3) 1 mg/mL goat-anti-human (Fab)2 fragment specific antibodies (Dianova) were labeled with MSD Sulfo TAG™ NHS-Ester (Meso Scale Discovery | Gaithersburg | Md. | USA) according to the manufacturer's instructions. The experiments were carried out in polypropylene microtiter plates and PBS (GIBCO 14190 | pH 7.0-7.2) containing 0.5% BSA and 0.02% Tween20 as assay buffer. Serial dilutions of unlabeled human GPVI-Fc (SEQ ID NO: 4), cynomolgus monkey GPVI-Fc (SEQ ID NO: 7), and mouse GPVI-Fc (SEQ ID NO: 8) (as prepared in Example 1) were prepared, starting with a concentration at least 10 times higher than the expected KD. Wells without antigen were used to determine Bmax values; wells containing only assay buffer were used to determine background. After addition of appropriate amount of binder (antibody concentration similar to or below the expected KD, 60 μL final volume), the mixture was incubated over night at RT. MSD plates were coated with antigen or biotinylated antigen on standard and streptavidin plates, respectively (30 μL per well). After washing the plate with PBS with 0.05% Tween 20, the equilibrated samples were transferred to the plates and incubated for 20 min. Following incubation, 30 μL per well of the MSD-Sulfo-tag labeled detection antibody (anti-human (Fab)2 | final dilution typically 1:2,000) was added to the washed MSD plate and incubated for 30 min at RT on an Eppendorf shaker (700 rpm). After washing the MSD plate and adding 30 μL/well MSD Read Buffer T with surfactant, electrochemiluminescence signals were detected using a Sector Imager 6000 (Meso Scale Discovery | Gaithersburg | Md. | USA). The data was evaluated with XLfit (IDBS) software applying customized fitting models. For KD determination of Fabs the fit model according to (Haenel et al. 2005), modified according to (Abraham et al.) was used.

[4] = target: T5, human GPVI-1A extracellular domain fused at its C-terminus to human IgG1 Fc (GPVI-Fc) (human); assay: as above
T5 construct: also called hGPVI-1a; hGPVI
T5 sequence (chain, as listed by the source limits assumed): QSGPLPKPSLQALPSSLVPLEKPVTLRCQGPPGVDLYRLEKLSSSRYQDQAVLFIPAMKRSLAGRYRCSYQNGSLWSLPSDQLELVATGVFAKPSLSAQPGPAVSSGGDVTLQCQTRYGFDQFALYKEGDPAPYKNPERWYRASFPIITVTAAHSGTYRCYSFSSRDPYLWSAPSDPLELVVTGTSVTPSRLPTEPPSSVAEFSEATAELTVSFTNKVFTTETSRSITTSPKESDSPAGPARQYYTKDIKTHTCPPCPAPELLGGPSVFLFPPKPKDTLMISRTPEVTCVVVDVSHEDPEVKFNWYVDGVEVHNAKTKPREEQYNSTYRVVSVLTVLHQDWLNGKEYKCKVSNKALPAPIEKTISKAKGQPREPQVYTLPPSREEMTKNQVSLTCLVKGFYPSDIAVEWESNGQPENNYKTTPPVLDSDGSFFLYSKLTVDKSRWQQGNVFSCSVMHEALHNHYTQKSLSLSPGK
Experimental: as §2, §3

[5] = target: T3, mouse GPVI extracellular domain fused …; assay: as above
Experimental: as §2, §3

[6] = target: T6, rat GPVI extracellular domain fused at its C-terminus to human IgG1 Fc (GPVI-Fc) (rat; human); assay: ELISA on coated rat GPVI-Fc
T6 construct: also called rGPVI
T6 sequence (chain, as listed by the source limits assumed): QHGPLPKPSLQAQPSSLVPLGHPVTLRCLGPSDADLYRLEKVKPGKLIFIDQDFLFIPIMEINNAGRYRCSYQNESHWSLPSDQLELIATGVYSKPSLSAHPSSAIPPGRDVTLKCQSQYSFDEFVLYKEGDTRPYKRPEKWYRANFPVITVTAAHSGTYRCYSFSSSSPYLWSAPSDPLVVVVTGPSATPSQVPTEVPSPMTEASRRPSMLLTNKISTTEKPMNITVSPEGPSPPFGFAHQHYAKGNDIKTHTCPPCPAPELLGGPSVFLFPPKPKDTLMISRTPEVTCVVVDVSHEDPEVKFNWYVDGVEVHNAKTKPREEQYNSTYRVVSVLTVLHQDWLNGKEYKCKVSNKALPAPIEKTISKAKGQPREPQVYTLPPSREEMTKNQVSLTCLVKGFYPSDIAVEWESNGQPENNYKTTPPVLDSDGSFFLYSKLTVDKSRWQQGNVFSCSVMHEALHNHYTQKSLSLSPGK

[7] = target: T1, mouse GPVI (full-length) expressed on …; assay: Cell ELISA (MSD) on CHO cells expressing mouse GPVI
[8] = target: T3, mouse GPVI extracellular domain fused …; assay: ELISA on coated mouse GPVI-Fc
[9] = target: T2, mouse GPVI on the cell surface of mouse …; assay: FACS on mouse platelets

Binder | IC50 [1] [nM] | Max. inhibition at 200 nM Fab [%] [1] [%] | IC50 [2] [nM] | Max. inhibition at 200 nM Fab [%] [2] [%] | Kd [3] [nM] | Kd [4] [nM] | Kd [5] [nM] | binding result [6] | binding result [7] | binding result [8] | binding result [9]
B1 | 4.3 | 99 | 12 | 99 | 0.024 | 0.027 | 7.1 |  |  |  | 
B2 | 3.3 | 100 | 8.1 | 100 | 0.068 | 0.062 | 0.6 |  |  |  | 
B3 | 6.7 | 94 | 10.6 | 67 | 0.017 | 0.022 | 0.29 |  |  |  | 
B4 |  |  |  |  | 0.036 | 0.054 |  | no binding | no binding | no binding | no binding
B5 | 9.1 | 96 | 26.4 | 77 | 0.075 | 0.068 | 28 |  |  |  | 
